# Reference: publication PMC9352680, “A comprehensive thermodynamic model for RNA binding by the Saccharomyces cerevisiae Pumilio protein PUF4”
# Changes are numbered by the printed parent chain. Names may count otherwise.
# B1: Id_ii_S4_P4E.2_K4.1_C4.2_[C-2G]_[T-1C]_H4.1_A4.1_F4.1_T4.2_[G10C]_[T11C] (ssRNA)
# RNA: UUUGACAACUGAUCGUUCUUUCUGCUGUAUAUUACCUUCUUUCUCGAUCAGUUGUCUUU
# B2: Id_ii_S4_P4E.2_K4.1_C4.2_[C-2A]_[T-1C]_H4.1_A4.1_F4.1_T4.2_[G10T]_[T11A] (ssRNA)
# RNA: B1 RNA with G24A, C35U, C36A
# B3: Id_ii_S4_P4E.2_K4.1_C4.2_[C-2T]_H4.1_A4.1_F4.1_T4.2_[G10A]_[T11C] (ssRNA)
# RNA: B1 RNA with G24U, C25U, C35A
# B4: Id_ii_S4_P4E.2_K4.1_C4.2_[C-2T]_[T-1A]_H4.1_A4.1_F4.1_T4.2_[T11C] (ssRNA)
# RNA: B1 RNA with G24U, C25A, C35G
# B5: Id_ii_S4_P4E.2_K4.1_C4.2_[C-2A]_[T-1G]_H4.1_A4.1_F4.1_T4.2_[G10A]_[T11A] (ssRNA)
# RNA: B1 RNA with G24A, C25G, C35A, C36A
# B6: Id_ii_S4_P4E.2_K4.1_C4.2_[C-2T]_H4.1_A4.1_F4.1_T4.2_[T11C] (ssRNA)
# RNA: B1 RNA with G24U, C25U, C35G
# B7: Id_ii_S4_P4E.2_K4.1_C4.2_[T-1G]_H4.1_A4.1_F4.1_T4.2_[G10T] (ssRNA)
# RNA: B1 RNA with G24C, C25G, C35U, C36U
# B8: Id_ii_S4_P4E.2_K4.1_C4.2_[C-2A]_H4.1_A4.1_F4.1_T4.2_[G10A]_[T11A] (ssRNA)
# RNA: B1 RNA with G24A, C25U, C35A, C36A
# B9: Id_ii_S4_P4E.2_K4.1_C4.2_[C-2T]_H4.1_A4.1_F4.1_T4.2_[G10T]_[T11G] (ssRNA)
# RNA: B1 RNA with G24U, C25U, C35U, C36G
# B10: Id_ii_S4_P4E.2_K4.1_C4.2_[C-2G]_[T-1C]_H4.1_A4.1_F4.1_T4.2_[G10T] (ssRNA)
# RNA: B1 RNA with C35U, C36U
# B11: Id_ii_S4_P4E.2_K4.1_C4.2_[C-2T]_[T-1A]_H4.1_A4.1_F4.1_T4.2_[G10A]_[T11C] (ssRNA)
# RNA: B1 RNA with G24U, C25A, C35A
# B12: Id_ii_S4_P4E.2_K4.1_C4.2_[C-2G]_H4.1_A4.1_F4.1_T4.2_[G10C]_[T11C] (ssRNA)
# RNA: B1 RNA with C25U
# B13: Id_ii_S4_P4E.2_K4.1_C4.2_[C-2A]_[T-1C]_H4.1_A4.1_F4.1_T4.2_[G10T]_[T11C] (ssRNA)
# RNA: B1 RNA with G24A, C35U
# B14: Id_ii_S4_P4E.2_K4.1_C4.2_[C-2A]_[T-1C]_H4.1_A4.1_F4.1_T4.2_[G10C] (ssRNA)
# RNA: B1 RNA with G24A, C36U
# B15: Id_ii_S4_P4E.2_K4.1_C4.2_[C-2T]_[T-1C]_H4.1_A4.1_F4.1_T4.2_[G10T]_[T11C] (ssRNA)
# RNA: B1 RNA with G24U, C35U
# B16: Id_ii_S4_P4E.2_K4.1_C4.2_[C-2T]_H4.1_A4.1_F4.1_T4.2 (ssRNA)
# RNA: B1 RNA with G24U, C25U, C35G, C36U
# B17: Id_ii_S4_P4E.2_K4.1_C4.2_[C-2A]_[T-1A]_H4.1_A4.1_F4.1_T4.2_[G10A] (ssRNA)
# RNA: B1 RNA with G24A, C25A, C35A, C36U
# B18: Id_ii_S4_P4E.2_K4.1_C4.2_[C-2T]_[T-1A]_H4.1_A4.1_F4.1_T4.2_[G10T]_[T11C] (ssRNA)
# RNA: B1 RNA with G24U, C25A, C35U
# B19: Id_ii_S4_P4E.2_K4.1_C4.2_[C-2G]_H4.1_A4.1_F4.1_T4.2_[G10T]_[T11A] (ssRNA)
# RNA: B1 RNA with C25U, C35U, C36A
# B20: Id_ii_S4_P4E.2_K4.1_C4.2_[C-2T]_H4.1_A4.1_F4.1_T4.2_[G10A]_[T11G] (ssRNA)
# RNA: B1 RNA with G24U, C25U, C35A, C36G
# B21: Id_ii_S4_P4E.2_K4.1_C4.2_[C-2A]_[T-1G]_H4.1_A4.1_F4.1_T4.2_[G10T]_[T11C] (ssRNA)
# RNA: B1 RNA with G24A, C25G, C35U
# B22: Id_ii_S4_P4E.2_K4.1_C4.2_[C-2A]_[T-1A]_H4.1_A4.1_F4.1_T4.2_[G10T] (ssRNA)
# RNA: B1 RNA with G24A, C25A, C35U, C36U
# B23: Id_ii_S4_P4E.2_K4.1_C4.2_[C-2A]_H4.1_A4.1_F4.1_T4.2_[G10T] (ssRNA)
# RNA: B1 RNA with G24A, C25U, C35U, C36U
# B24: Id_ii_S4_P4E.2_K4.1_C4.2_[C-2T]_[T-1A]_H4.1_A4.1_F4.1_T4.2 (ssRNA)
# RNA: B1 RNA with G24U, C25A, C35G, C36U
# Target: T1, PUF4 RNA-binding domain (Saccharomyces cerevisiae, UniProt P25339 537-888)
# T1 sequence: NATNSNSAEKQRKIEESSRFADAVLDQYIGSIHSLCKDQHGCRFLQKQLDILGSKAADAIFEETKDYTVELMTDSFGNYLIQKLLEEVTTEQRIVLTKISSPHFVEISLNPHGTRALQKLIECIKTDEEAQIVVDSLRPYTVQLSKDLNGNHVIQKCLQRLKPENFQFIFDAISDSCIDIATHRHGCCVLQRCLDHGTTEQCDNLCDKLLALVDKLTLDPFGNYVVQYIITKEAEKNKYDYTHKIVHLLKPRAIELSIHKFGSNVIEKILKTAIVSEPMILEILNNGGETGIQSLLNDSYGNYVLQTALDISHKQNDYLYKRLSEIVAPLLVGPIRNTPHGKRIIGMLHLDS
# Experiment: Mg; RNA-MaP; 20 mM Na-HEPES pH 7.4, 30 mM KOAc, 0.75 mM MgCl2, 0.1% Tween-20, 5% glycerol, 0.1 mg/mL BSA, 2 mM DTT; 25 C; 0.0125-409.6 nM protein
# Conditions: tags: N-His6-TEV cleaved; C-SNAP kept, Cy3B-labelled; label: tethered on chip by stalled RNA polymerase
row,Binder,Kd [nM]
1,UCUCUUUAUAGUAUUAUCUCUU (ssRNA) [Ib_S1_P5E.1_K5.1_C5.1_H5.1_[G2A]_A5.1_[T5G]_F5.1_T5.1],1360
2,UCUCUUUCUAUCAUUAUCUCUU (ssRNA) [Ib_S1_P5E.1_K5.1_C5.1_H5.1_[G2C]_A5.1_[T6C]_F5.1_T5.1],> 2300
3,UCUCUUUUUAGUAUUAUCUCUU (ssRNA) [Ib_S1_P5E.1_K5.1_C5.1_H5.1_[G2T]_A5.1_[T5G]_F5.1_T5.1],> 2300
4,UCUCUUUAUACUAUUAUCUCUU (ssRNA) [Ib_S1_P5E.1_K5.1_C5.1_H5.1_[G2A]_A5.1_[T5C]_F5.1_T5.1],330
5,UCUCUUUUUAUAAUUAUCUCUU (ssRNA) [Ib_S1_P5E.1_K5.1_C5.1_H5.1_[G2T]_A5.1_[T6A]_F5.1_T5.1],> 2300
6,B1,1.35
7,B2,0.625
8,B3,0.493
9,B4,0.368
10,B5,1.62
11,B6,0.339
12,B7,0.196
13,B8,1.35
14,B9,0.308
15,B10,0.295
16,B11,1.15
17,B12,1.76
18,B13,0.306
19,B14,1.24
20,B15,0.319
21,B16,0.37
22,B17,1.37
23,B18,0.343
24,B19,0.515
25,B20,3.49
26,B21,2.16
27,B22,1.56
28,B23,0.312
29,B24,0.659
